The source of these data is article doi:10.1101/2025.10.29.685329 (bioRxiv, 2025).

No end group written: not given here.

For experiment [1], the target named is T1, His-PGK1 (UniProt P00558 1-417).
T1 sequence (looked up): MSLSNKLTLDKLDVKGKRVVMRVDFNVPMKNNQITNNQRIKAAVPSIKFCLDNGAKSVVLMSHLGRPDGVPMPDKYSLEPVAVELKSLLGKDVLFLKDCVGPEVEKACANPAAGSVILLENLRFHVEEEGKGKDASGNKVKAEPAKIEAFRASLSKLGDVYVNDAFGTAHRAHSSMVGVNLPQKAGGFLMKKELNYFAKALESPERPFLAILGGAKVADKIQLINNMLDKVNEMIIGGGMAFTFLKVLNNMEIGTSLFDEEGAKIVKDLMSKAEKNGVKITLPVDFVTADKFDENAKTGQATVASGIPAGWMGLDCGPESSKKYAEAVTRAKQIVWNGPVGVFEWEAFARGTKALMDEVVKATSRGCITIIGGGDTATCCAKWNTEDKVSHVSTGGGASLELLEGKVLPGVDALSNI
The experiment can be described thus: pull-down.

Experiment [2] concerns the target T2, GST-PGK1 (UniProt P00558 1-417).
T2 sequence (looked up): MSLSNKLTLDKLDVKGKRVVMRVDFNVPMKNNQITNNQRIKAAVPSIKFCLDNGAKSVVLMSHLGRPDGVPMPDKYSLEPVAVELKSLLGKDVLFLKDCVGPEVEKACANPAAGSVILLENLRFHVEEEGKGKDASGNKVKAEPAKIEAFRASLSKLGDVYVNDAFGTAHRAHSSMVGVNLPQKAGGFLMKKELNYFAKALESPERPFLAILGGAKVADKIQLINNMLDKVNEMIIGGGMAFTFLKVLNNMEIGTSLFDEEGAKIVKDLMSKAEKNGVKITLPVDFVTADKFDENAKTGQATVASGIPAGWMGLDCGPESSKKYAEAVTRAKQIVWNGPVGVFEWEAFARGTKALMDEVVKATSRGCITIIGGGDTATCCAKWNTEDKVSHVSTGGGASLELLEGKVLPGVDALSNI
As to the kind of experiment: co-sedimentation.

B1: GST-TfR1-61 (TfR cyto), wild type (domain or fragment, UniProt P02786 1-61, looked up)
chain: MMDQARSAFSNLFGGEPLSYTRFSLARQVDGDNSHVEMKLAVDEEENADNNTKANVTKPKR
Consider B1, for which the binding result in experiment [1] is listed as “binds”.

As for HHHHHHSAFSNLFGGEPLSYTRFSL (not fully specified) [His-Tyr peptide (lipid-linked tyrosine-based motif)], in experiment [2], the binding result is given as “binds”.
